For data set [1], the target named is T1, beta-lactoglobulin (UniProt P02754 P02754:17-178).
T1 sequence: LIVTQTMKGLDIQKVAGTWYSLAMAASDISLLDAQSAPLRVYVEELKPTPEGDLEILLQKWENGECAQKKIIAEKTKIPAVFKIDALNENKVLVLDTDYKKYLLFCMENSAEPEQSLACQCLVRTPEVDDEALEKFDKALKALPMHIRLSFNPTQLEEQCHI
Kind of data set: magnetic bead strand-displacement fluorescence assay, 37 C; aptamer hybridised to biotinylated short chain, released by 50 ug/mL protein; ITC in 10 mM Tris-HCl. To be noted: label: 5'-FAM (fluorescence assay); stem-loop (Mfold predicted). How it is done:
(§1) Various concentrations (10 nM, 25 nM, 50 nM, 75 nM, 100 nM, 150 nM, 200 nM, and 300 nM) of the aptamer were respectively mixed with the biotinylated complementary short chain at a molar ratio of 1:1.5, denatured at 95° C. for 10 min, and slowly cooled to 37° C. for 3 h until the two were fully hybridized. The mixture was reacted with a certain amount of streptavidin-coupled magnetic beads (where the weight ratio of the aptamer to the magnetic beads was 1:400) at 37° C. and 200 rpm for 2 h to immobilize the aptamer on the magnetic beads by the strong binding between the biotin and streptavidin. The immobilized magnetic beads were incubated with 50 μg/mL β-lactoglobulin in a 300 μL system at 37° C. and 200 rpm. After magnetic separation, the supernatant was subjected to fluorescence measurement at an excitation wavelength of 485 nm and an emission wavelength of 522 nm. The relative fluorescence intensity at various aptamer concentrations was nonlinearly fitted by GraphPad prism 5.0 software, and the dissociation constant Kd of the aptamer was calculated (see Table 1). […] The homologous sequences (Lg-9 and Lg-16) of the aptamer Lg-18 also have good ability of binding to β-lactoglobulin.

The target of a further data set is T2, alpha-lactalbumin (UniProt P00711 P00711:20-142).
T2 sequence: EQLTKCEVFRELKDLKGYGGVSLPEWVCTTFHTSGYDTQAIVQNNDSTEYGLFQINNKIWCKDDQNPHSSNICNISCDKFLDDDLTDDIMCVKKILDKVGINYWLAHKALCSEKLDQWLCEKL
Put plainly: specificity control, 50 ug/mL protein, 200 nM aptamer on magnetic beads; text states good specificity, values only in figure. Conditions: label: 5'-FAM (fluorescence assay); stem-loop (Mfold predicted). The protocol: (§2) Various concentrations (10 nM, 25 nM, 50 nM, 75 nM, 100 nM, 150 nM, 200 nM, and 300 nM) of the aptamer were respectively mixed with the biotinylated complementary short chain at a molar ratio of 1:1.5, denatured at 95° C. for 10 min, and slowly cooled to 37° C. for 3 h until the two were fully hybridized. The mixture was reacted with a certain amount of streptavidin-coupled magnetic beads (where the weight ratio of the aptamer to the magnetic beads was 1:400) at 37° C. and 200 rpm for 2 h to immobilize the aptamer on the magnetic beads by the strong binding between the biotin and streptavidin. The immobilized magnetic beads were incubated with 50 μg/mL β-lactoglobulin in a 300 μL system at 37° C. and 200 rpm. After magnetic separation, the supernatant was subjected to fluorescence measurement at an excitation wavelength of 485 nm and an emission wavelength of 522 nm. The relative fluorescence intensity at various aptamer concentrations was nonlinearly fitted by GraphPad prism 5.0 software, and the dissociation constant Kd of the aptamer was calculated (see Table 1). […]
(§3) The specificity of the aptamer (Lg-18) was evaluated by the same method. […] After magnetic separation, the fluorescence intensity of the supernatant was measured respectively, and then the specificity of the aptamer was evaluated.

The target of data set [2] is BSA (bovine serum albumin) (Bos taurus, UniProt P02769 P02769:25-607). Described as above. Conditions: label: 5'-FAM (fluorescence assay); stem-loop (Mfold predicted). The protocol: as §2, §3
BSA (bovine serum albumin), sequence (P02769 25-607, one chain of several): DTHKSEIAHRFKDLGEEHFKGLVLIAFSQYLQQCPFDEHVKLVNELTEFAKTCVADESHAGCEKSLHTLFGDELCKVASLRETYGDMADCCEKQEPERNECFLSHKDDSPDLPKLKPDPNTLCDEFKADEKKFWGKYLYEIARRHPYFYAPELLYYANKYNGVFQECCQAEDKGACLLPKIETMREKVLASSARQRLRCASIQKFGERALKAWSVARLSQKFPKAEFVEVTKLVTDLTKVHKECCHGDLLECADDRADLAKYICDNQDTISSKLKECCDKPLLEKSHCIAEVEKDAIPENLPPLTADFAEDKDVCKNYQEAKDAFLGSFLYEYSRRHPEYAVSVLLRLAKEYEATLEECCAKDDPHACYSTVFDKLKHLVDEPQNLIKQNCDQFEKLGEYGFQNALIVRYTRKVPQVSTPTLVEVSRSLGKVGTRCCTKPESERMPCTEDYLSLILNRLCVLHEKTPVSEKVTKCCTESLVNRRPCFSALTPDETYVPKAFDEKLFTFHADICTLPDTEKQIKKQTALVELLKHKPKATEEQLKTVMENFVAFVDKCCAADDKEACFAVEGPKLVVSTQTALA
For data set [3], the target named is T1, beta-lactoglobulin. Put plainly: magnetic bead strand-displacement fluorescence assay, 37 C. To be noted: label: 5'-FAM (fluorescence assay). The protocol:
as §1

B1: Lg-18 (ssDNA)
DNA: AGCAGCACAGAGGTCAGATGTTCGGCCTTTGCGTTAACGAACTTCTAGCTATGCGGCGTACCTATGCGTGCTACCGTGAA
In general, Kd refers to the free concentration of one partner at which half of the binding sites on the other are occupied at equilibrium, for simple one-to-one binding. As to B1, in the data set with beta-lactoglobulin [1], the Kd is 65 nM. For the same molecule, the binding result (with alpha-lactalbumin; in data set [2]) was “no binding” in each case.

B2: Lg-16 (ssDNA)
DNA: AGCAGCACAGAGGTCAGATGTCGTTTGTGGCTGTCAATTGGTGTGTTTACCTGTTTTGGCCTATGCGTGCTACCGTGAA
For the molecule B2, the equilibrium dissociation constant (Kd) with beta-lactoglobulin [3] was 65.8 nM.

B3: Lg-9 (ssDNA)
DNA: AGCAGCACAGAGGTCAGATGGTTTTGTTGGGTCTGCTACGGACTTTGTTGACCTTTGCTCCCTATGCGTGCTACCGTGAA
In the data set with beta-lactoglobulin [3], B3 had a Kd of 71.8 nM.

Values taken from patent US20220340905, “NUCLEIC ACID APTAMER SPECIFICALLY RECOGNIZING B-LACTOGLOBULIN AND USE THEREOF” (JIANGNAN UNIVERSITY, published 2022).
